Results from patent US20190338009A1 (ZEALAND PHARMA A S, published 2019).
Square brackets hold non-standard residues; d marks the D form. Aib = CC(C)(N)C(=O)O

B1: Compound 18 (peptide)
peptide: H-H[Aib]EGTFTSELATILDEQAARDFIAWLISHKITD-OH
SMILES: CC[C@H](C)[C@H](NC(=O)[C@H](Cc1ccccc1)NC(=O)[C@H](CC(=O)O)NC(=O)[C@H](CCCNC(=N)N)NC(=O)[C@H](C)NC(=O)[C@H](C)NC(=O)[C@H](CCC(N)=O)NC(=O)[C@H](CCC(=O)O)NC(=O)[C@H](CC(=O)O)NC(=O)[C@H](CC(C)C)NC(=O)[C@@H](NC(=O)[C@@H](NC(=O)[C@H](C)NC(=O)[C@H](CC(C)C)NC(=O)[C@H](CCC(=O)O)NC(=O)[C@H](CO)NC(=O)[C@@H](NC(=O)[C@H](Cc1ccccc1)NC(=O)[C@@H](NC(=O)CNC(=O)[C@H](CCC(=O)O)NC(=O)C(C)(C)NC(=O)[C@@H](N)Cc1c[nH]cn1)[C@@H](C)O)[C@@H](C)O)[C@@H](C)O)[C@@H](C)CC)C(=O)N[C@@H](C)C(=O)N[C@@H](Cc1c[nH]c2ccccc12)C(=O)N[C@@H](CC(C)C)C(=O)N[C@H](C(=O)N[C@@H](CO)C(=O)N[C@@H](Cc1c[nH]cn1)C(=O)N[C@@H](CCCCN)C(=O)N[C@H](C(=O)N[C@H](C(=O)N[C@@H](CC(=O)O)C(=O)O)[C@@H](C)O)[C@@H](C)CC)[C@@H](C)CC
B2: Compound 17 (peptide)
peptide: H-H[Aib]EGTFTSELATILDEQAARDFIAWLIRHKITD-OH
SMILES: CC[C@H](C)[C@H](NC(=O)[C@H](Cc1ccccc1)NC(=O)[C@H](CC(=O)O)NC(=O)[C@H](CCCNC(=N)N)NC(=O)[C@H](C)NC(=O)[C@H](C)NC(=O)[C@H](CCC(N)=O)NC(=O)[C@H](CCC(=O)O)NC(=O)[C@H](CC(=O)O)NC(=O)[C@H](CC(C)C)NC(=O)[C@@H](NC(=O)[C@@H](NC(=O)[C@H](C)NC(=O)[C@H](CC(C)C)NC(=O)[C@H](CCC(=O)O)NC(=O)[C@H](CO)NC(=O)[C@@H](NC(=O)[C@H](Cc1ccccc1)NC(=O)[C@@H](NC(=O)CNC(=O)[C@H](CCC(=O)O)NC(=O)C(C)(C)NC(=O)[C@@H](N)Cc1c[nH]cn1)[C@@H](C)O)[C@@H](C)O)[C@@H](C)O)[C@@H](C)CC)C(=O)N[C@@H](C)C(=O)N[C@@H](Cc1c[nH]c2ccccc12)C(=O)N[C@@H](CC(C)C)C(=O)N[C@H](C(=O)N[C@@H](CCCNC(=N)N)C(=O)N[C@@H](Cc1c[nH]cn1)C(=O)N[C@@H](CCCCN)C(=O)N[C@H](C(=O)N[C@H](C(=O)N[C@@H](CC(=O)O)C(=O)O)[C@@H](C)O)[C@@H](C)CC)[C@@H](C)CC
B3: Compound 19 (peptide)
peptide: H-H[Aib]EGTFTSELATILDEQAARDFIAWLIAQKITD-OH
SMILES: CC[C@H](C)[C@H](NC(=O)[C@H](CC(C)C)NC(=O)[C@H](Cc1c[nH]c2ccccc12)NC(=O)[C@H](C)NC(=O)[C@@H](NC(=O)[C@H](Cc1ccccc1)NC(=O)[C@H](CC(=O)O)NC(=O)[C@H](CCCNC(=N)N)NC(=O)[C@H](C)NC(=O)[C@H](C)NC(=O)[C@H](CCC(N)=O)NC(=O)[C@H](CCC(=O)O)NC(=O)[C@H](CC(=O)O)NC(=O)[C@H](CC(C)C)NC(=O)[C@@H](NC(=O)[C@@H](NC(=O)[C@H](C)NC(=O)[C@H](CC(C)C)NC(=O)[C@H](CCC(=O)O)NC(=O)[C@H](CO)NC(=O)[C@@H](NC(=O)[C@H](Cc1ccccc1)NC(=O)[C@@H](NC(=O)CNC(=O)[C@H](CCC(=O)O)NC(=O)C(C)(C)NC(=O)[C@@H](N)Cc1c[nH]cn1)[C@@H](C)O)[C@@H](C)O)[C@@H](C)O)[C@@H](C)CC)[C@@H](C)CC)C(=O)N[C@@H](C)C(=O)N[C@@H](CCC(N)=O)C(=O)N[C@@H](CCCCN)C(=O)N[C@H](C(=O)N[C@H](C(=O)N[C@@H](CC(=O)O)C(=O)O)[C@@H](C)O)[C@@H](C)CC

Key:
[1] = target: human glucagon-like peptide 1 receptor (GLP-1R) (human, UniProt P43220 24-463); test: cell-based or functional assay
[2] = target: T1, human GLP-2 receptor (hGLP2-R) (human, UniProt O95838 1-553); test: cell-based or functional assay
T1 sequence (looked up): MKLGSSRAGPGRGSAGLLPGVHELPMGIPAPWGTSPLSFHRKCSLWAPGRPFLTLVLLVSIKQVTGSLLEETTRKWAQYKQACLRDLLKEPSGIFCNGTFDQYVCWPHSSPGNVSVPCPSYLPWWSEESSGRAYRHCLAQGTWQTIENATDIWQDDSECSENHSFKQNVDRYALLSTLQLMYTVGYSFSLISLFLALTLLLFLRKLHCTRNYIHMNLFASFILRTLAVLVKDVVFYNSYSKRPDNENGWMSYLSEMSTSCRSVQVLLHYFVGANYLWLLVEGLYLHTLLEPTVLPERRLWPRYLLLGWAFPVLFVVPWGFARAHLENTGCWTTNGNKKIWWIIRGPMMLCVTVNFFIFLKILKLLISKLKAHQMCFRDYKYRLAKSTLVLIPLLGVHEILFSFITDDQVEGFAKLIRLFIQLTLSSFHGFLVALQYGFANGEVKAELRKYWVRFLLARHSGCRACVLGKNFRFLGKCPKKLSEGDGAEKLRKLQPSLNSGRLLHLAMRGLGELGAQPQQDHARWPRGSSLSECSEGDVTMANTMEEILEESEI

Binder	EC50 GLP-1 (nM); cAMP AlphaScreen, HEK293 cells expressing human GLP-1R [1] [nM]	EC50 GLP-2 (nM); cAMP AlphaScreen, HEK293 cells expressing human GLP-2R [2] [nM]
B1	0.006	0.054
B2	0.006	0.066
B3	0.005	0.15
